Test results taken from paper PMC11180205, “Single-molecule reconstruction of eukaryotic factor-dependent transcription termination” (Nature Communications, 2024).

Substrate: Nc1ncnc2c1ncn2[C@@H]1O[C@H](COP(=O)(O)OP(=O)(O)OP(=O)(O)O)[C@@H](O)[C@H]1O
Test: single-molecule fluorescence (FRET / SNAP649 dwell time), Michaelis-Menten fit of k1 versus ATP
Type: biochemical, Saccharomyces cerevisiae
Details: k1 step: ATP-dependent translocation on nascent RNA to stalled Pol II TEC (bioPol II/RNA-Cy3/DNA or Pol II/RNA-Cy3/bioDNA, 28 bp transcription unit); 10 nM Sen1 HD-SNAP649, 2 nM TFIIS, UTP and CTP, 20; pH 8.0

B1: Sen1 HD-SNAP649 (Sen1 helicase domain) (Saccharomyces cerevisiae S288C) (protein)
chain: AELAKQELEHMRKRLNVDMNPLYEIILQWDYTRNSEYPDDEPIGNYSDVKDFFNSPADYQKVMKPLLLLESWQGLCSSRDREDYKPFSIIVGNRTAVSDFYDVYASVAKQVIQDCGISESDLIVMAYLPDFRPDKRLSSDDFKKAQHTCLAKVRTLKNTKGGNVDVTLRIHRNHSFSKFLTLRSEIYCVKVMQMTTIEREYSTLEGLEYYDLVGQILQAKPSPPVNVDAAEIETVKKSYKLNTSQAEAIVNSVSKEGFSLIQGPPGTGKTKTILGIIGYFLSTKNASSSNVIKVPLEKNSSNTEQLLKKQKILICAPSNAAVDEICLRLKSGVYDKQGHQFKPQLVRVGRSDVVNVAIKDLTLEELVDKRIGERNYEIRTDPELERKFNNAVTKRRELRGKLDSESGNPESPMSTEDISKLQLKIRELSKIINELGRDRDEMREKNSVNYRNRDLDRRNAQAHILAVSDIICSTLSGSAHDVLATMGIKFDTVIIDEACQCTELSSIIPLRYGGKRCIMVGDPNQLPPTVLSGAASNFKYNQSLFVRMEKNSSPYLLDVQYRMHPSISKFPSSEFYQGRLKDGPGMDILNKRPWHQLEPLAPYKFFDIISGRQEQNAKTMSYTNMEEIRVAIELVDYLFRKFDNKIDFTGKIGIISPYREQMQKMRKEFARYFGGMINKSIDFNTIDGFQGQEKEIILISCVRADDTKSSVGFLKDFRRMNVALTRAKTSIWVLGHQRSLAKSKLWRDLIEDAKDRSCLAYACSGFLDPRNNRAQSILRKFNVPVPSEQEDDYKLPMEYITQGPDEVKSN
notes: helicase domain, residues 1095-1904; C-terminal PreScission site, SNAP-tag and 10xHis-tag kept, labelled with SNAP-Surface 649; expressed in E. coli BL21(DE3) codon plus RIPL; single molecule acts
Q: With B1 as the protein, how does the Km read?
A: 40 ± 15 µM
